Publication PMC4188072, “Structure of a short-chain dehydrogenase/reductase (SDR) within a genomic island from a clinical strain of Acinetobacter baumannii” (Acta Crystallographica. Section F, Structural Biology …, 2014)

Biological target: the molecule itself
Assay: SEC; Superdex G200 10/300 column, 50 mM HEPES buffer pH 7.5, 300 mM NaCl, 5% (v/v) glycerol; native mass 120 kDa against a 30 kDa band on SDS-PAGE

B1: SDR-WM99c short-chain dehydrogenase/reductase from Acinetobacter baumannii WM99c (enzyme, A. baumannii (strain WM99c))
chain: MNIFDVKDKYILITGASSGLGHHIAELFAKEGANIVICARRLERLKELESHIKNEYGVQVYTFALDVNDRSAVKDMLSSLEAEGVTIDVLINNAGVSDTKRFLDYNDEDWDKIVDTNLKAPWQCAQEVVQHMIKAERKGSIINITSILSQSTNLGVSPYCASKAGLRHLTEVMAVELARFGINVNAIAPGYMITEINEEYLTSEVGQQLLKKIPTRKFVEFDDLNGPLLLLASQAGQGITGIEIKVDGGHSAAPI
modifications: selenomethionine (cells grown in selenomethionine medium; Se sites located in the crystal)
notes: SDR-WM99c, hypothetical protein encoded in genomic island GI_12 of A. baumannii strain WM99c; total chain length 255 residues; also called SDR-WM99c dehydrogenase; source: E. coli BL21 (DE3) pLysS, grown in selenomethionine medium, purified (Ni-NTA); not shown: His6, N-terminal, kept
For B1, the “stoichiometry N” value was 4.
